According to IntAct's records for PubMed 17891150:

Biological target: TNRC6B, Q9UPQ9-2
Sequence (Q9UPQ9 other isoform, or with tags, fused parts or gaps): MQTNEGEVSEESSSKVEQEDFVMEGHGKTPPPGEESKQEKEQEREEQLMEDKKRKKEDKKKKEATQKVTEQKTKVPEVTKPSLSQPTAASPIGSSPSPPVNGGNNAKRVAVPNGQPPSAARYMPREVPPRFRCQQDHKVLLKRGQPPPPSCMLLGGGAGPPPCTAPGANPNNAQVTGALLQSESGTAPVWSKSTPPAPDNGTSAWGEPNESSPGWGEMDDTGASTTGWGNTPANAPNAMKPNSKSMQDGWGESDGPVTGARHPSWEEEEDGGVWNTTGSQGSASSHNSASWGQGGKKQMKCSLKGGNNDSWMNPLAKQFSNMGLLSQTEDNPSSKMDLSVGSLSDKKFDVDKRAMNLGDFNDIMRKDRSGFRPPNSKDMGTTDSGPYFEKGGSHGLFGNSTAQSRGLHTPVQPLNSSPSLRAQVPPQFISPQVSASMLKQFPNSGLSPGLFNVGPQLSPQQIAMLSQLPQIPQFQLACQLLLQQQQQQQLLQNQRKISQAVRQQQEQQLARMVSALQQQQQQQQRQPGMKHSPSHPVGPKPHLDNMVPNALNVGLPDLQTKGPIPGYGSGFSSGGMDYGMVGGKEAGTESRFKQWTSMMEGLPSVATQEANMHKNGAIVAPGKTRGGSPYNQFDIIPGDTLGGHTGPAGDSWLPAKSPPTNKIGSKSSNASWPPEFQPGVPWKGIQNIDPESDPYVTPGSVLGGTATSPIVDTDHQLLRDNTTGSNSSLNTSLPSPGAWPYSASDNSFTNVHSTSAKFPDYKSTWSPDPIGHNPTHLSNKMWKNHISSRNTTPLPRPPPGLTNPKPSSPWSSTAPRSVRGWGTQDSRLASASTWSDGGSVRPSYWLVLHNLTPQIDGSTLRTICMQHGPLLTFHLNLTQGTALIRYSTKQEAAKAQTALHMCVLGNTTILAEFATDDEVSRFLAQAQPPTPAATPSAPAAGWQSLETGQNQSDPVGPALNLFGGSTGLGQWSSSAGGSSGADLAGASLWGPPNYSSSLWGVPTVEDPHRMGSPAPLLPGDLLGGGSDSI

Sequence of Protein argonaute-2 (Homo sapiens), Q9UKV8 Y749A (Q9UKV8 whole entry Y749A): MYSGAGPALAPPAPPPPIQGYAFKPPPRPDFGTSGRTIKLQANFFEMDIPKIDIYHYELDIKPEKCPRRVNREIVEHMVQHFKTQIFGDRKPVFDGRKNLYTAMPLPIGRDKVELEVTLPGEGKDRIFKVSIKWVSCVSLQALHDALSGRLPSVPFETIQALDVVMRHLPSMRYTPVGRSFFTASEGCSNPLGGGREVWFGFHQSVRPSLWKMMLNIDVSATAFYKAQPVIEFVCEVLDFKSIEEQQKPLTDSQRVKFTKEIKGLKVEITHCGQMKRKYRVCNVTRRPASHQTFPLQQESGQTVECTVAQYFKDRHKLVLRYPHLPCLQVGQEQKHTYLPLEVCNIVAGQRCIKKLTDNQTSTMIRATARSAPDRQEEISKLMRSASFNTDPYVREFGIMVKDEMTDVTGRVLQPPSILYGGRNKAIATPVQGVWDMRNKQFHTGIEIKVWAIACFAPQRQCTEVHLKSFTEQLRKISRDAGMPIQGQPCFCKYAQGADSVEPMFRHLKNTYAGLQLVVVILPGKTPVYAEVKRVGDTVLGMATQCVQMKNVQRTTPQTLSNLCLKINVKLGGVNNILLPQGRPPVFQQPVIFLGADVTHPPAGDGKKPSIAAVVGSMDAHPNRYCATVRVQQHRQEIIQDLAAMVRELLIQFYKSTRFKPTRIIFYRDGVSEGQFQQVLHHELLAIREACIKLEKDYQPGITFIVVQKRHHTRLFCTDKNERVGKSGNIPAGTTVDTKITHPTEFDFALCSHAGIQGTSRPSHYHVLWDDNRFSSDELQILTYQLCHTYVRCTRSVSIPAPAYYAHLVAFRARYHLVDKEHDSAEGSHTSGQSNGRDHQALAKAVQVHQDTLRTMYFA
Sequence of Protein argonaute-2 (Homo sapiens), Q9UKV8 K533A (Q9UKV8 whole entry K533A): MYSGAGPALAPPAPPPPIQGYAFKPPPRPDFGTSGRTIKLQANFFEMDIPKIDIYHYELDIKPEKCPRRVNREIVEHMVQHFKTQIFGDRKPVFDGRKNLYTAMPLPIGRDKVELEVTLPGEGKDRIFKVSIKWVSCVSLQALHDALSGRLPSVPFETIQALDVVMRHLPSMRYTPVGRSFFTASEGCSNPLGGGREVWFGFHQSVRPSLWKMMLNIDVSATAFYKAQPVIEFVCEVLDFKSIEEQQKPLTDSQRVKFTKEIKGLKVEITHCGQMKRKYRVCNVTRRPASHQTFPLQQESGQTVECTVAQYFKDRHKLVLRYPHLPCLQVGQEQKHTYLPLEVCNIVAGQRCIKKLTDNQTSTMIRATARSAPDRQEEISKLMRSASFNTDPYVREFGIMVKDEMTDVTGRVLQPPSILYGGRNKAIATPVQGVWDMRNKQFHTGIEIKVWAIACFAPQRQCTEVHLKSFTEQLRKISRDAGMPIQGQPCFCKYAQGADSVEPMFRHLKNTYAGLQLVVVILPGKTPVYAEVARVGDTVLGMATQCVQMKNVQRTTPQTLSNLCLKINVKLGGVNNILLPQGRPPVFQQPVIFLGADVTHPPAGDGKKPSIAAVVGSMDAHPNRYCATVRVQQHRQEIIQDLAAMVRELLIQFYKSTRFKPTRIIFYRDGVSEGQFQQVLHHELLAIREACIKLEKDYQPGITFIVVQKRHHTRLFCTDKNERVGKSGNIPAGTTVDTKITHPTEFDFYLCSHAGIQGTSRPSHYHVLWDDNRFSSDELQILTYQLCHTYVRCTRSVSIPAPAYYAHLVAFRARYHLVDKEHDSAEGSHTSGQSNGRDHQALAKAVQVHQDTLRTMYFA
Sequence of Protein argonaute-2 (Homo sapiens), Q9UKV8 Q545A (Q9UKV8 whole entry Q545A): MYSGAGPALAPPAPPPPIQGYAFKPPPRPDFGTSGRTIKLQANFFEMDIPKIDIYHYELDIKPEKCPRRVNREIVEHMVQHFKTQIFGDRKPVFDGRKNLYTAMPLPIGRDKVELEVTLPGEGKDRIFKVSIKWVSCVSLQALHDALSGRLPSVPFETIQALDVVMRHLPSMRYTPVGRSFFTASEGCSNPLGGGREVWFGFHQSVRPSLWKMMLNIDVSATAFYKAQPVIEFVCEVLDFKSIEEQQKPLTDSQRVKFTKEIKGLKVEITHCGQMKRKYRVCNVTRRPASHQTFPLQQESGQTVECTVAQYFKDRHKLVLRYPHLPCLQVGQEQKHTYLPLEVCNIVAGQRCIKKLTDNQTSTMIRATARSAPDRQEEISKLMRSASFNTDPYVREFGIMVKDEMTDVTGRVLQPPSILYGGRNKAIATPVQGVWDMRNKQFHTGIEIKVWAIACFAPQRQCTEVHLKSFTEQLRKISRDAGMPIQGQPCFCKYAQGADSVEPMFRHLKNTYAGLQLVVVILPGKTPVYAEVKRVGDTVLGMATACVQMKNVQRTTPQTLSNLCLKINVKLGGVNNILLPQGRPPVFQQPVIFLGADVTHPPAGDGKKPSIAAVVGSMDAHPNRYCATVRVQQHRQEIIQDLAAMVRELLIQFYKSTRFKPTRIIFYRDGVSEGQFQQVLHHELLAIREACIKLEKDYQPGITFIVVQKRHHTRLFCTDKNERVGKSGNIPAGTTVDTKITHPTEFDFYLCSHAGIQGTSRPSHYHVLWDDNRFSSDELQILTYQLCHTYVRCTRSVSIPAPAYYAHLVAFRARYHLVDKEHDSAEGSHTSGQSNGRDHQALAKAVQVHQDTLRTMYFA
Sequence of Protein argonaute-2 (Homo sapiens), Q9UKV8 F587A (Q9UKV8 whole entry F587A): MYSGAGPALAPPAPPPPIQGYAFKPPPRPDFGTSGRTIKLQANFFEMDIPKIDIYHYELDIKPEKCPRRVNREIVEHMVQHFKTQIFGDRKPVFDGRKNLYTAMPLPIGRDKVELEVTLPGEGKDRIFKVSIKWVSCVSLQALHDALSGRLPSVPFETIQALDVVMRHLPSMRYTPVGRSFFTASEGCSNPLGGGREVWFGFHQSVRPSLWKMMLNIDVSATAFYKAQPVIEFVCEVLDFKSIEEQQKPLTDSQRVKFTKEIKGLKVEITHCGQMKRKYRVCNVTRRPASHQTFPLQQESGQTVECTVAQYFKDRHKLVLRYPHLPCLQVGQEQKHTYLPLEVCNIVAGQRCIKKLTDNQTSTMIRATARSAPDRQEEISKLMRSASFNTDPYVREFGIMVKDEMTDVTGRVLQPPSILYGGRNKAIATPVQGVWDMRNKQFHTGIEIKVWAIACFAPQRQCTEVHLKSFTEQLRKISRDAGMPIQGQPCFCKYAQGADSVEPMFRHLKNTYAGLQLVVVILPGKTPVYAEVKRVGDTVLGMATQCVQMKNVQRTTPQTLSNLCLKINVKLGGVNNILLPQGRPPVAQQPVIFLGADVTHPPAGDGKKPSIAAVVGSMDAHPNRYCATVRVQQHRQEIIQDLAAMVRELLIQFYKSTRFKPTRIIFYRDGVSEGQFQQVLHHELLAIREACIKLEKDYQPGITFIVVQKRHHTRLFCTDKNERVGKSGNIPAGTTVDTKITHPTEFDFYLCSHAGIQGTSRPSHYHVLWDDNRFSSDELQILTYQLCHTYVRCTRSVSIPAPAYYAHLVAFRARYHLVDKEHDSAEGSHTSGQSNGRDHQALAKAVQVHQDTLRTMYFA

| Substance | effect of a mutation on the interaction |
| --- | --- |
| Protein argonaute-2 (Homo sapiens), Q9UKV8 R647A | disrupting interaction |
| Protein argonaute-2 (Homo sapiens), Q9UKV8 Y625A | disrupting interaction |
| Protein argonaute-2 (Homo sapiens), Q9UKV8 Y784A | decreasing interaction |
| Protein argonaute-2 (Homo sapiens), Q9UKV8 Y529A | disrupting interaction |
| Protein argonaute-2 (Homo sapiens), Q9UKV8 K533A | disrupting interaction |
| Protein argonaute-2 (Homo sapiens), Q9UKV8 F653A | disrupting interaction |
| Protein argonaute-2 (Homo sapiens), Q9UKV8 V615A | decreasing interaction |
| Protein argonaute-2 (Homo sapiens), Q9UKV8 F587A | decreasing interaction |
| Protein argonaute-2 (Homo sapiens), Q9UKV8 I592A | disrupting interaction |
| Protein argonaute-2 (Homo sapiens), Q9UKV8 Y805A | decreasing interaction |
| Protein argonaute-2 (Homo sapiens), Q9UKV8 V797A | disrupting interaction |
| Protein argonaute-2 (Homo sapiens), Q9UKV8 R812A | disrupting interaction |
| Protein argonaute-2 (Homo sapiens), Q9UKV8 F858A | decreasing interaction |
| Protein argonaute-2 (Homo sapiens), Q9UKV8 Y749A | decreasing interaction |
| Protein argonaute-2 (Homo sapiens), Q9UKV8 Q545A | disrupting interaction strength |
| Protein argonaute-2 (Homo sapiens), Q9UKV8 R583A | disrupting interaction |
